{
  "source": "the nanobody polyreactivity screen of Harvey et al. (2022)",
  "data": [
    {"test": "yeast display, Sf9 membrane polyspecificity reagent, FACS + sequencing; frameworks hold sequencing errors", "method_in_brief": "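A nanobody's polyreactivity label depends on the gate it was sorted from. Yeast display cells were stained with 10% biotinylated, detergent-solubilized Sf9 membrane reagent for 1 hour at 4 °C, enriched on streptavidin microbeads and sorted by FACS. The low and high (top ~1%) gates were set on anti-HA fluorescence for expression and streptavidin fluorescence for reagent binding.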", "values": [
      {"sequence": "QVQLVESGGGLVQAGGSLRLTCAASGYIQPKNTMGWYRQAPGKERELVAAISWSGGSTFYADSVKGRFTISRDNAKNTVYLKMNSLKPVDTAVYYCAADRSWSWYYRYDYWGQGTQVTLSS", "polyreactivity (PSR sort gate)": "low polyreactivity"},
      {"sequence": "QVQLVESGGGLVQAGGSLRLTCAASGYTIIQYAMGWYRQAPGKERELVAGITWSGGSTYADSVKGRFTISRDNAKNTVYLQMNSLKPEATAVYYCAADDRDIYQYGTPYGSGIRYDYWGQGTQVTVSS", "polyreactivity (PSR sort gate)": "low polyreactivity"},
      {"sequence": "QVQLVESGGGLVQAGGSLRLTCAATGSTLYFYAMGWYRQAPGKERELVASISGTGGRTDYADSVKGRFTISRDNAKNTVYLQMNSLKPEDTAVYYCAADLIRRYGDGYWGQGTQVTVSS", "polyreactivity (PSR sort gate)": "high polyreactivity"},
      {"sequence": "QVQLVESGGGLVQAGGSLRLTCAPSRSIFVAYTMGWYRQAPGKERELVAAISRGGSTNYADSVKGRFTISRDNAKNTVYLQMNSLTPEETAVYYCAAKVWDGQLLYYWGQGTQVTVSS", "polyreactivity (PSR sort gate)": "low polyreactivity"},
      {"sequence": "QVQLVESGGGLVQAGGSLRLTCASSGITFGSYAMGWYTQAPGKERELVAAITWRGGSTFYADSVKGRFTISRDNAKITVYLQMNSLKPEDTAVYYCAATLTKYLPRYYWGHGTQVTVSS", "polyreactivity (PSR sort gate)": "low polyreactivity"},
      {"sequence": "QVQLVESGGGLVQAGGSLRLTCGASGFTFDSYAMGWSRQEPGKERELVAAISTIGGRTYYADSVKGRFTISRDNAKNTVYLQMNSLKPEDTAVYYCAAEQGTPSTNWYDYWGQGTQVTVSS", "polyreactivity (PSR sort gate)": "low polyreactivity"},
      {"sequence": "QVQLVESGGGLVQAGGSLRLTCGASGRIFRGYAMGCSRQAPGKERELVASISGGDSTYADSVKGRYTISRDNAKNTVYLQINSLKPEDTSVYYWAASSWYPALREYWGQGTQVSVSS", "polyreactivity (PSR sort gate)": "low polyreactivity"},
      {"sequence": "QVQLVESGGGLVQAGGSLRLTCPASGSTFHGYDMGCYRQAPGKERELVAAITSSGDDTYYADSVKGRFTISRDNAKNTVYLQMNSLKPEDTAVYYCAAEYTEGYTHDYWGQGSQVTVSS", "polyreactivity (PSR sort gate)": "low polyreactivity"},
      {"sequence": "QVQLVESGGGLVQAGGSLRLTCSASGSTFPSNSMGGYRQAPGKERELVAAITFRGGRTYYADSVKGRFTISRDNAKNTVYLQMNSLIPEDTAVYYCAAERWWYTVRGYGYWGQGTQVTVSS", "polyreactivity (PSR sort gate)": "high polyreactivity"},
      {"sequence": "QVQLVESGGGLVQAGGSLRLTFAASGSTFDYYAMGWYRQAPGKERELVAGITSDGSTYYADSVKGRFTISRDNAKNTVYLQMNSLKPEDTAVYYCDVDVDPVFYTTYYYSYYYWGQGTQVTVSS", "polyreactivity (PSR sort gate)": "low polyreactivity"},
      {"sequence": "QVQLVESGGGLVQAGGSLRLTSAASGRTFTSNVMGWYSQAPGKEWEVVAAISSSGGRTYYADSVKGRFTISRDNAKNTVYLQMNSLKPEDTAVYYCAGDGDPEYPRYGYWGKGTQVTVSS", "polyreactivity (PSR sort gate)": "high polyreactivity"},
      {"sequence": "QVQLVESGGGLVQAGGSLRLTSAASGSTIDYYAMGWYRQAPGKERELVARISKRGGSTYYADSVKGRFTISRDNAKYTVYLQMNSLKPEDTAVYFCAKRVRISYTNYHFDYWGQCTQVTVSS", "polyreactivity (PSR sort gate)": "high polyreactivity"},
      {"sequence": "QVQLVESGGGLVQAGGSLRRSCAASGSTFTTYAMGWYRQAPGKERELGAAITSVGSTYYEDSVKGRCTISRDNAKNTVYLQLNSLKPEDTAVYYCNVVYRDQYNDWGQGTQVTVSW", "polyreactivity (PSR sort gate)": "low polyreactivity"},
      {"sequence": "QVQLVESGGGLVQAGGSLRSSCAASGGTFYGYAMGWYRQAPGKERELVAAISFSGGRTYYADSVKGSFTISRDNAKNTVYLQMNSLKPEDTAVYYCAALRRYPRPNIYGYWGQGTQVTVSS", "polyreactivity (PSR sort gate)": "low polyreactivity"},
      {"sequence": "QVQLVESGGGLVQAGGSLRVICAASGSTFSGNAMGWSRKAPGKERELVAAISRRGGRTYYADSVKGRFTISRDNAKNTVFLQMNRLKPEDTAVYYCAATSGVYRVGIIKYDYWGQGTQVTVSS", "polyreactivity (PSR sort gate)": "high polyreactivity"},
      {"sequence": "QVQLVESGGGLVQAGGSLRVSCAASGFISGYYTMRWYRQAPGKEWELVAVINSGGSTYYADSVKGRFTISRDNAKNTVYLQMNSLKPEDTAVYYCAKLGGKYSRYYYWGQGTQVTVSS", "polyreactivity (PSR sort gate)": "low polyreactivity"},
      {"sequence": "QVQLVESGGGLVQAGGSLRVSCAASGFTFNYYAMGWYRQAAGKERELVAAISKDGTRTYYADSVKGRFTISRDNAKNTVYLQMNRQKPEDTAVYYCAAKASPAGSNYWGQGTQVTVSS", "polyreactivity (PSR sort gate)": "high polyreactivity"},
      {"sequence": "QVQLVESGGGLVQAGGSLRVSCAASGFTFSYYVMGWYRQAPGKERELVAAITTSGSGTYYADSVKGRFTISRDNAKNTVYLQMNSLKPEDTAVYYCAARPYRGFVSRYGYWGQGTQVTVSS", "polyreactivity (PSR sort gate)": "low polyreactivity"},
      {"sequence": "QVQLVESGGGLVQAGGSLRVSCAASGFTFVGTAMGWYRQAPGKERELVAAITWSGGRTYYADSVKGRFTISRDKAKNTVYLQMNSLTPEDTAVYYCATRWRGRMDYWGQGTQVTVSS", "polyreactivity (PSR sort gate)": "high polyreactivity"},
      {"sequence": "QVQLVESGGGLVQAGGSLRVSCAASGGTFCNYAMGWNRQAPGKERELVAAITSGGGSTYYADSVKGRFTISRDIAKNTVYLQMNSLKPEDTAVYYCAARRSSYGYWGQGTQVTVSS", "polyreactivity (PSR sort gate)": "high polyreactivity"},
      {"sequence": "QVQLVESGGGLVQAGGSLRVSCAASGITFNEYAMGWYRQAPGKEREFVAAITFSGDSTYADSVKGRFTISRDNAKNTVYLQMNSLKPEDTAVYYCAKRGGRQTYYYWGQGTQVTVSS", "polyreactivity (PSR sort gate)": "high polyreactivity"},
      {"sequence": "QVQLVESGGGLVQAGGSLRVSCAASGLNFYGNAMGWYRQAPGKERELVAAISWSGGNTSYADSVKGRFTISRDNAKNTVYLQMNSLKPDDTAVYYCNADSLPSVERYGYWGQGTQVTVSS", "polyreactivity (PSR sort gate)": "low polyreactivity"},
      {"sequence": "QVQLVESGGGLVQAGGSLRVSCAASGLTFKYNALGWYIQAPGKERELVASISSGSTNYADSVKGRFTISRDNAKNSVYLEMNSLKPEDTSVYYCAASVSRGKRFRYGYVFKMDYWGQGTQLTVSS", "polyreactivity (PSR sort gate)": "low polyreactivity"},
      {"sequence": "QVQLVESGGGLVQAGGSLRVSCAASGNIFYYYAKGWSRQAPGKERELDAAISKRGGSTYYADSVKGRFTISRDIAKNTVYLQMNSLKTEVTAVYYCAADGGYADYDYWGQGTQVTVSS", "polyreactivity (PSR sort gate)": "high polyreactivity"},
      {"sequence": "QVQLVESGGGLVQAGGSLRVSCAASGRIFFRNAMGWYRQAPGKESELVAAITRGGGSTYYADSVKGRFTISRDNATNTVYLQMNSLKPEDTEVYYCAAGAGYSLYSAYDYWGQGTQVTVSS", "polyreactivity (PSR sort gate)": "low polyreactivity"},
      {"sequence": "QVQLVESGGGLVQAGGSLRVSCAASGRIFTQYATGWYRQAPAKEREMVAAINASDGSTYADSVKGRFTISRDNAKNSVYVQMNSLNPEDSAVYYCNVTGGPYDFTRWSDFDHWGQGTQVTVSS", "polyreactivity (PSR sort gate)": "low polyreactivity"},
      {"sequence": "QVQLVESGGGLVQAGGSLRVSCAASGRILNPNAMGWYRQAPGKERELVADISSGGSTYADSVKGRFTISRDNAKNTVYLQMNSLKPEDTAVYYCAKPGYEEFYREYDSWGQGTQVNVSS", "polyreactivity (PSR sort gate)": "low polyreactivity"},
      {"sequence": "QVQLVESGGGLVQAGGSLRVSCAASGRTFKKYTMGLYRQAAGKERELVPVITSGGSTYYADSVKGRFTISRDNAKNTVYLQMNSLKPEDTAVYYWAADLYYNSYGRYGRYYYWGQGTQVTVSS", "polyreactivity (PSR sort gate)": "high polyreactivity"},
      {"sequence": "QVQLVESGGGLVQAGGSLRVSCAASGRTFKYYARGWYRQAPGKARELVAAISGSGGSTYYADSVKGRFTISRDNAKNTVYLQMNSLKPEDTAVYYCAAAGKETSRNAYDSWGQGTQETVSS", "polyreactivity (PSR sort gate)": "high polyreactivity"},
      {"sequence": "QVQLVESGGGLVQAGGSLRVSCAASGRTFRGYSMGWSRPAPGKERELVAAISWRGGTTYYADSVKGRFTISRDNAKNTVYLQMNSLKPEDTAVYYCAARRYRISKTSGYWGQGTQVTVSS", "polyreactivity (PSR sort gate)": "high polyreactivity"},
      {"sequence": "QVQLVESGGGLVQAGGSLRVSCAASGRTFRYYEMGWYRQAPGKERELVAAISWSGGSTYYADSVKGRFTISRDNAKNSVYLQMNSLKPEDTAVYYCGAPKPIYSYPTYYYWGQGTQVTVSS", "polyreactivity (PSR sort gate)": "high polyreactivity"},
      {"sequence": "QVQLVESGGGLVQAGGSLRVSCAASGRTFYFNAMGWYRQAPGKERELVAVISWSGGRTYYADSVKGRFTISRDNAKNTVYLLMNSLKPEDTAVYYCAADYQSGGSRYDYWGQGTQVTVSS", "polyreactivity (PSR sort gate)": "high polyreactivity"},
      {"sequence": "QVQLVESGGGLVQAGGSLRVSCAASGSIFCPYTMGWNRQAPGKERELVAAITRSGGSTYYADSVKGRFTISRDNGKNTVYLQMNSLKPEDTAVFYCAARGQAYSGDRMYYWGQGTQVTVSS", "polyreactivity (PSR sort gate)": "high polyreactivity"},
      {"sequence": "QVQLVESGGGLVQAGGSLRVSCAASGSTIITNAMGWYRQATGKERELVAAITYSTGATYYADSVKGRFTISRDNAKNTVYLQMNSQKPEDTACYYCAALLYFFMIDYWGQGTQETVSS", "polyreactivity (PSR sort gate)": "low polyreactivity"},
      {"sequence": "QVQLVESGGGLVQAGGSLRVSCAASGTIFRRYAMGWYRQAPGKERELVATISSCTTTNYADSVKGRFTISRDNAKNTVYLQMNSLKPEDTAVYYCAADDYYEFYWGQGTQVTVSS", "polyreactivity (PSR sort gate)": "high polyreactivity"},
      {"sequence": "QVQLVESGGGLVQAGGSLRVSCASSGRTFSRNAMGWYRQAPGKEMELVATISRRGGSTNYADSVKGRFTISRDNAKNTVYLQMNSMKQEDTAVYYCAAGYRVRDDKVYGIVGPMDYWGQGTQVNVSS", "polyreactivity (PSR sort gate)": "high polyreactivity"},
      {"sequence": "QVQLVESGGGLVQAGGSLRVSFAASGLTFFQYGMGWYRQAPGKERELVASITRSRGRTNYADSVKGRFTISRDNAKYTVYLQMNSLKPEDTAVYYCAAYYYGSSAYGYGYNYWGQGTQVTVSS", "polyreactivity (PSR sort gate)": "high polyreactivity"},
      {"sequence": "QVQLVESGGGLVQAGGSLRVTCAASGNIFGYYAMGWYRQAPGKERELDAAISSGGTTSYADSVKGRFTISRDNAKNTVYLQLNSLKPEDTAVYYCAARDWYDGFYYWGQGTQVTVSS", "polyreactivity (PSR sort gate)": "low polyreactivity"},
      {"sequence": "QVQLVESGGGLVQAGGSLRYSCAASGSTSAWYAMGWYRQAPGKERELVAAITESGGDTYYADSVKGRFTISRDNAKNTVYLQMNSLKPEDTAVYYCNARGSARKSVPYPLEYWGQGTQVTVSS", "polyreactivity (PSR sort gate)": "high polyreactivity"},
      {"sequence": "QVQLVESGGGLVQAGGSLSISCAASGLSFSVNAMGWYRPAPGKEREFVAAISSSGGRTYYADSVKGRFTISRDHAKNTVYLQMNSLKPEYTAGYYCATAQGSRVDYWGQGTQVTLSS", "polyreactivity (PSR sort gate)": "high polyreactivity"},
      {"sequence": "QVQLVESGGGLVQAGGSLSLICAASGFIYYTMGWYRQAPGKEWELVAAISRSGGSTYYADSVKGRFTISRDNAKNTVYLQMNSLKPEDTAVYYCAARRPYRDGYDYWGQGTQVTVSS", "polyreactivity (PSR sort gate)": "high polyreactivity"},
      {"sequence": "QVQLVESGGGLVQAGGSLSLICAASGSTFSQYFMGLYRQAPGKDRELVAGISSRGTSTYYADSVKGRFTISRDNAQNTFYLQMNSLKPEDTAVFYCNRGKLYNTYDYWGQGTQVNVSS", "polyreactivity (PSR sort gate)": "low polyreactivity"},
      {"sequence": "QVQLVESGGGLVQAGGSLSLICAASGSTILYNTMGWYRQAPGKERELVATITSRGDRTYYADSVKGRFTISRDNAKNTVYLQMNSLKPDDTAVYYCNAYGGNYPQSYRYYYWGQGTQVTVSS", "polyreactivity (PSR sort gate)": "low polyreactivity"}
    ]}
  ]
}
